From publication PMC8136826

Target: Cas12a ΔBH (Francisella novicida, UniProt A0Q7Q2 1-1300, del953-969)
Test: EMSA

B1: crRNA + dsDNA target (58 nt, TS/NTS) (mixed)
RNA: UAAUUUCUACUGUUGUAGAUGUGAUAAGUGGAAUGCCAUGUGGG
DNA 1: ACTCAATTTTGACAGCCCACATGGCATTCCACTTATCACTAAAGGCATCCTTCCACGT
DNA 2: ACGTGGAAGGATGCCTTTAGTGATAAGTGGAATGCCATGTGGGCTGTCAAAATTGAGT
- binding result: binds
